These results are taken from the supplement of paper PMC9112550, “Optimization of the antimicrobial peptide Bac7 by deep mutational scanning” (BMC Biology, 2022).
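Further: peptides expressed intracellularly from a pBAD plasmid library in pooled LB shake-flask culture, induced with 0.3% L-arabinose, DNA abundance read by NGS, three biological replicates, DESeq2 with apeglm shrinkage.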

This data set concerns Escherichia coli TOP10. As to the kind of experiment: shrunken log2 fold change of peptide-encoding DNA abundance (4.5 h post-induction vs induction); higher = less antimicrobial activity (less host growth inhibition). As to conditions: time post-induction: 4.5 h; library: site-saturation at positions 5, 18, 19, 20.
Consider RRIRARPPRLPRPRPRPMWQPRP, for which the “shrunken log2 fold change” value was -0.00908.
The result for RRIRQRPPRLPRPRPRPRYSPRP reads -0.192.
For the sequence RRIRYRPPRLPRPRPRPPDFPRP, the “shrunken log2 fold change” value was -0.136.
Regarding RRIRVRPPRLPRPRPRPPTMPRP, the “shrunken log2 fold change” value was found to be 0.0704.
RRIRWRPPRLPRPRPRPPTQPRP: the “shrunken log2 fold change” value worked out at 0.312.
The result for RRIRLRPPRLPRPRPRPQAWPRP reads 0.126; that for RRIRQRPPRLPRPRPRPFYPPRP, 0.0712.
The result for RRIRTRPPRLPRPRPRPDLVPRP reads -0.0188; that for RRIRGRPPRLPRPRPRPNTSPRP, 0.172.
For RRIRPRPPRLPRPRPRPVKIPRP, the “shrunken log2 fold change” value stood at 0.154.
The result for RRIRPRPPRLPRPRPRPNEYPRP reads -0.783.
The result for RRIRCRPPRLPRPRPRPKSDPRP reads 0.0327; that for RRIRQRPPRLPRPRPRPVERPRP, -0.0839.
The result for RRIRKRPPRLPRPRPRPNKWPRP reads -0.0156; that for RRIRFRPPRLPRPRPRPCEFPRP, 0.0635; that for RRIRERPPRLPRPRPRPESFPRP, 0.0447.
For RRIRSRPPRLPRPRPRPMLEPRP, the “shrunken log2 fold change” value was -0.0898.
The result for RRIRMRPPRLPRPRPRPDPFPRP reads 0.0255; that for RRIRTRPPRLPRPRPRPSLGPRP, -0.229.
The result for RRIRWRPPRLPRPRPRPHMKPRP reads -0.204; that for RRIRARPPRLPRPRPRPANPPRP, 0.425.
For RRIRFRPPRLPRPRPRPNNYPRP, the “shrunken log2 fold change” value was -0.539.
The result for RRIRHRPPRLPRPRPRPKTIPRP reads -0.486.
The result for RRIRDRPPRLPRPRPRPWPEPRP reads -0.0683; that for RRIRSRPPRLPRPRPRPLDKPRP, -0.233; that for RRIRHRPPRLPRPRPRPQVCPRP, -0.0115.
The result for RRIRQRPPRLPRPRPRPERRPRP reads 0.0099; that for RRIRSRPPRLPRPRPRPPHDPRP, 0.277.
On to RRIRFRPPRLPRPRPRPRMPPRP, for which the “shrunken log2 fold change” value worked out at 0.145.
The result for RRIRARPPRLPRPRPRPHDWPRP reads 0.295; that for RRIRYRPPRLPRPRPRPIIIPRP, -0.161; that for RRIRTRPPRLPRPRPRPFPNPRP, -0.105.
The result for RRIRFRPPRLPRPRPRPPTGPRP reads 0.217.
The result for RRIRNRPPRLPRPRPRPEPHPRP reads 0.131; that for RRIRNRPPRLPRPRPRPYIAPRP, -0.172.
RRIRRRPPRLPRPRPRPICDPRP: the “shrunken log2 fold change” value was found to be 0.309.
The result for RRIRTRPPRLPRPRPRPEADPRP reads 0.0868; that for RRIRKRPPRLPRPRPRPMAEPRP, 0.208.
For RRIRKRPPRLPRPRPRPAFCPRP, the “shrunken log2 fold change” value amounted to 0.422.
The result for RRIRHRPPRLPRPRPRPPFNPRP reads -0.256; that for RRIRLRPPRLPRPRPRPHGGPRP, -0.234.
The result for RRIRVRPPRLPRPRPRPLPYPRP reads -0.587; that for RRIRWRPPRLPRPRPRPNKDPRP, -0.393.
The result for RRIRCRPPRLPRPRPRPFQGPRP reads 0.203; that for RRIRKRPPRLPRPRPRPHEYPRP, -0.091.
Turning to RRIRMRPPRLPRPRPRPNFTPRP, the “shrunken log2 fold change” value is -0.099.
The result for RRIRFRPPRLPRPRPRPLNVPRP reads -0.345; that for RRIRERPPRLPRPRPRPIWLPRP, -0.0129; that for RRIRDRPPRLPRPRPRPGYKPRP, -0.121.
The result for RRIRYRPPRLPRPRPRPESSPRP reads -0.0327.
The result for RRIRCRPPRLPRPRPRPRYTPRP reads -0.37.
As for RRIRGRPPRLPRPRPRPVLRPRP, the “shrunken log2 fold change” value came out at 0.656.
The result for RRIRLRPPRLPRPRPRPDRHPRP reads -0.279.
Consider RRIRCRPPRLPRPRPRPTMVPRP, for which the “shrunken log2 fold change” value was -0.33.
Take RRIRLRPPRLPRPRPRPIHFPRP: the “shrunken log2 fold change” value was -0.77.
The result for RRIRDRPPRLPRPRPRPLLRPRP reads 0.0308.
The result for RRIRARPPRLPRPRPRPEFNPRP reads 1.05; that for RRIRRRPPRLPRPRPRPNWNPRP, -0.115; that for RRIRGRPPRLPRPRPRPCRSPRP, -0.0741.
The result for RRIRARPPRLPRPRPRPSTCPRP reads 0.0421.
Regarding RRIRVRPPRLPRPRPRPQVNPRP, the “shrunken log2 fold change” value is -0.795.
The result for RRIRPRPPRLPRPRPRPQIYPRP reads -0.858; that for RRIRDRPPRLPRPRPRPNREPRP, -0.00168; that for RRIRCRPPRLPRPRPRPDQEPRP, 0.0455.
The result for RRIRYRPPRLPRPRPRPCSKPRP reads -0.012.
The result for RRIRCRPPRLPRPRPRPTFMPRP reads -0.513; that for RRIRYRPPRLPRPRPRPAYDPRP, -0.236; that for RRIRQRPPRLPRPRPRPQQSPRP, -0.0224.
As to RRIRSRPPRLPRPRPRPSHVPRP, the “shrunken log2 fold change” value is -0.3.
The result for RRIRMRPPRLPRPRPRPPQIPRP reads 0.468; that for RRIRRRPPRLPRPRPRPWTAPRP, -0.106; that for RRIRRRPPRLPRPRPRPNKNPRP, 0.153.
The result for RRIRLRPPRLPRPRPRPDLCPRP reads 0.307; that for RRIRHRPPRLPRPRPRPAWHPRP, -0.132.
The result for RRIRRRPPRLPRPRPRPREPPRP reads 1.04; that for RRIRQRPPRLPRPRPRPFHTPRP, -0.0573.
RRIRERPPRLPRPRPRPCLDPRP: the “shrunken log2 fold change” value is -0.0689.
The result for RRIRRRPPRLPRPRPRPPVKPRP reads 0.369; that for RRIRRRPPRLPRPRPRPRDDPRP, 0.14; that for RRIRVRPPRLPRPRPRPTQWPRP, 0.12.
Turning to RRIRDRPPRLPRPRPRPATLPRP, the “shrunken log2 fold change” value is -0.146.
On to RRIRFRPPRLPRPRPRPPDEPRP, for which the “shrunken log2 fold change” value was determined as 0.684.
RRIRPRPPRLPRPRPRPWVNPRP: the “shrunken log2 fold change” value was -0.11.
Regarding RRIRHRPPRLPRPRPRPYHQPRP, the “shrunken log2 fold change” value was -0.981.
The result for RRIRWRPPRLPRPRPRPWNQPRP reads -0.067; that for RRIRFRPPRLPRPRPRPGKTPRP, -0.142.
The result for RRIRGRPPRLPRPRPRPSHAPRP reads 0.423; that for RRIRWRPPRLPRPRPRPAIVPRP, 0.144; that for RRIRWRPPRLPRPRPRPFASPRP, 0.177.
The result for RRIRTRPPRLPRPRPRPYMLPRP reads -1.13.
For RRIRCRPPRLPRPRPRPPDEPRP, the “shrunken log2 fold change” value turned out to be 1.07.
